Values belong to the binder of their own block, whether it stands above or below them.
Tests used:
[1] = molecular target: Flag-VPS34 previously ubiquitinated in vitro by UBE3C, Q8NEB9
endogenous VPS34 = molecular target: T1, endogenous VPS34 (UniProt Q8NEB9 1-887); experiment: co-immunoprecipitation from 293T cells (FIG. 2I)
T1 construct: also called vacuolar protein sorting 34; PI3 Kinase Class III

Rubicon = molecular target: T2, Rubicon (UniProt Q92622 1-972, limits assumed); experiment: immunoprecipitation in 293T cells transfected with Flag-TRABID, fed or starved 2 h (FIG. 2R)
T2 sequence (looked up): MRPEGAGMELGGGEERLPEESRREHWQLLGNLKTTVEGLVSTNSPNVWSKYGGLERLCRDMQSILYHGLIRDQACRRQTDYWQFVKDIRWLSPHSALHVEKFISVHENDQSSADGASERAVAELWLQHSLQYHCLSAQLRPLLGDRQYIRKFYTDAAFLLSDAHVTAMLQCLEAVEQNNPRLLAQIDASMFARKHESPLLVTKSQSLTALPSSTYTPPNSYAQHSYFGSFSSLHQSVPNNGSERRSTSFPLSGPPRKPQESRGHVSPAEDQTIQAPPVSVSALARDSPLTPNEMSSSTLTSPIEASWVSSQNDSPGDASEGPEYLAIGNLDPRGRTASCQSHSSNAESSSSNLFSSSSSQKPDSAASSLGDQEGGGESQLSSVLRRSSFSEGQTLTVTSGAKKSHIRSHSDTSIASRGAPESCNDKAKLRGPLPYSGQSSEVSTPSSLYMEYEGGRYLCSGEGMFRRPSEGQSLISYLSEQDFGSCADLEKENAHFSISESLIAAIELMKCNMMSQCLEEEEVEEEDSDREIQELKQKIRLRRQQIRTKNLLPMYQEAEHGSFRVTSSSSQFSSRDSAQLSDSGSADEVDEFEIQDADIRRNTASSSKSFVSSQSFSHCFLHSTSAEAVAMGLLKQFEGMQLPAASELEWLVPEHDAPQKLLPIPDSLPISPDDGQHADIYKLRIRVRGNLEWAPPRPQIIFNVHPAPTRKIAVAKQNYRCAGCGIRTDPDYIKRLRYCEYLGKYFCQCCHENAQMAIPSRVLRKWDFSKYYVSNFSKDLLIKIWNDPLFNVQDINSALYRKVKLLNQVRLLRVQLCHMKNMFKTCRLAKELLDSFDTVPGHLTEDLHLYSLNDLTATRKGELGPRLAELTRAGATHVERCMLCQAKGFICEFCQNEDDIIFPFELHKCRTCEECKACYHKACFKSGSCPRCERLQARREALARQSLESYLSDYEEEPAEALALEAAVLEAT

Flag-VPS34 previously ubiquitinated in vitro by UBE3C, Q8NEB9, sequence (Q8NEB9 whole entry, looked up): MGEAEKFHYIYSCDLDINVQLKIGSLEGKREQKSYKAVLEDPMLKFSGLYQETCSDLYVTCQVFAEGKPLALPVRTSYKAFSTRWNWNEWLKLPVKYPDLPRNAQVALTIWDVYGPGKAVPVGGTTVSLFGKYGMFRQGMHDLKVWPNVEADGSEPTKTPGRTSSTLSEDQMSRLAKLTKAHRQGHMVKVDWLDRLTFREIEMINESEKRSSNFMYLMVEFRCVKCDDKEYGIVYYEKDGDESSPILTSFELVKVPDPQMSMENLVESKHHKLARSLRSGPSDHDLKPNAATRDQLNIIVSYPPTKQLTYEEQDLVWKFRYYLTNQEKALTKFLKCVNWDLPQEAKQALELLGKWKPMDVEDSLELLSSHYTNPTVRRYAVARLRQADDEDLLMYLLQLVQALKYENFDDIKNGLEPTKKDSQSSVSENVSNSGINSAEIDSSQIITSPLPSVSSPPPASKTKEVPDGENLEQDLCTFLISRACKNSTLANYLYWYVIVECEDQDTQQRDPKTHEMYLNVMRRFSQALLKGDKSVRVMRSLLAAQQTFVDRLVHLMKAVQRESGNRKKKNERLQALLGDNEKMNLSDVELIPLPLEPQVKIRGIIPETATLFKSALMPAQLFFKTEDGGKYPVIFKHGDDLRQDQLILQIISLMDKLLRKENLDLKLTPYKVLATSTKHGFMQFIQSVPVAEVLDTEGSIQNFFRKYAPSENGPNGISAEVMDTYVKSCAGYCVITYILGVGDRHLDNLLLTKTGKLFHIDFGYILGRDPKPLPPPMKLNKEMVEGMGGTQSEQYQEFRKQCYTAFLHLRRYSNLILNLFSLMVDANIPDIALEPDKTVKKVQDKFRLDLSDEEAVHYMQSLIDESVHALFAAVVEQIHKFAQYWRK
Flag-VPS34, Q8NEB9, sequence (Q8NEB9 whole entry, looked up): as above
T1 sequence (Q8NEB9 whole entry): as the sequence (Q8NEB9 whole entry, looked up) above

B1: purified TRABID (Boston Biochem; E-560) (protein)
chain: MSERGIKWACEYCTYENWPSAIKCTMCRAQRPSGTIITEDPFKSGSSDVGRDWDPSSTEGGSSPLICPDSSARPRVKSSYSMENANKWSCHMCTYLNWPRAIRCTQCLSQRRTRSPTESPQSSGSGSRPVAFSVDPCEEYNDRNKLNTRTQHWTCSVCTYENWAKAKRCVVCDHPRPNNIEAIELAETEEASSIINEQDRARWRGSCSSGNSQRRSPPATKRDSEVKMDFQRIELAGAVGSKEELEVDFKKLKQIKNRMKKTDWLFLNACVGVVEGDLAAIEAYKSSGGDIARQLTADEVRLLNRPSAFDVGYTLVHLAIRFQRQDMLAILLTEVSQQAAKCIPAMVCPELTEQIRREIAASLHQRKGDFACYFLTDLVTFTLPADIEDLPPTVQEKLFDEVLDRDVQKELEEESPIINWSLELATRLDSRLYALWNRTAGDCLLDSVLQATWGIYDKDSVLRKALHDSLHDCSHWFYTRWKDWESWYSQSFGLHFSLREEQWQEDWAFILSLASQPGASLEQTHIFVLAHILRRPIIVYGVKYYKSFRGETLGYTRFQGVYLPLLWEQSFCWKSPIALGYTRGHFSALVAMENDGYGNRGAGANLNTDDDVTITFLPLVDSERKLLHVHFLSAQELGNEEQQEKLLREWLDCCVTEGGVLVAMQKSSRRRNHPLVTQMVEKWLDRYRQIRPCTSLSDGEEDEDDEDE
in vitro deubiquitination assay, Western blot of total and K48 ubiquitin linkages on VPS34 (FIG. 2K) [1]: purified TRABID was capable of reducing the total and K48 ubiquitin linkages from this VPS34 in vitro

binding result (endogenous VPS34): binds
B2: endogenous TRABID (enzyme)
chain: MSERGIKWACEYCTYENWPSAIKCTMCRAQRPSGTIITEDPFKSGSSDVGRDWDPSSTEGGSSPLICPDSSARPRVKSSYSMENANKWSCHMCTYLNWPRAIRCTQCLSQRRTRSPTESPQSSGSGSRPVAFSVDPCEEYNDRNKLNTRTQHWTCSVCTYENWAKAKRCVVCDHPRPNNIEAIELAETEEASSIINEQDRARWRGSCSSGNSQRRSPPATKRDSEVKMDFQRIELAGAVGSKEELEVDFKKLKQIKNRMKKTDWLFLNACVGVVEGDLAAIEAYKSSGGDIARQLTADEVRLLNRPSAFDVGYTLVHLAIRFQRQDMLAILLTEVSQQAAKCIPAMVCPELTEQIRREIAASLHQRKGDFACYFLTDLVTFTLPADIEDLPPTVQEKLFDEVLDRDVQKELEEESPIINWSLELATRLDSRLYALWNRTAGDCLLDSVLQATWGIYDKDSVLRKALHDSLHDCSHWFYTRWKDWESWYSQSFGLHFSLREEQWQEDWAFILSLASQPGASLEQTHIFVLAHILRRPIIVYGVKYYKSFRGETLGYTRFQGVYLPLLWEQSFCWKSPIALGYTRGHFSALVAMENDGYGNRGAGANLNTDDDVTITFLPLVDSERKLLHVHFLSAQELGNEEQQEKLLREWLDCCVTEGGVLVAMQKSSRRRNHPLVTQMVEKWLDRYRQIRPCTSLSDGEEDEDDEDE

binding result (Rubicon): no binding
B3: Flag-TRABID (enzyme)
chain: MSERGIKWACEYCTYENWPSAIKCTMCRAQRPSGTIITEDPFKSGSSDVGRDWDPSSTEGGSSPLICPDSSARPRVKSSYSMENANKWSCHMCTYLNWPRAIRCTQCLSQRRTRSPTESPQSSGSGSRPVAFSVDPCEEYNDRNKLNTRTQHWTCSVCTYENWAKAKRCVVCDHPRPNNIEAIELAETEEASSIINEQDRARWRGSCSSGNSQRRSPPATKRDSEVKMDFQRIELAGAVGSKEELEVDFKKLKQIKNRMKKTDWLFLNACVGVVEGDLAAIEAYKSSGGDIARQLTADEVRLLNRPSAFDVGYTLVHLAIRFQRQDMLAILLTEVSQQAAKCIPAMVCPELTEQIRREIAASLHQRKGDFACYFLTDLVTFTLPADIEDLPPTVQEKLFDEVLDRDVQKELEEESPIINWSLELATRLDSRLYALWNRTAGDCLLDSVLQATWGIYDKDSVLRKALHDSLHDCSHWFYTRWKDWESWYSQSFGLHFSLREEQWQEDWAFILSLASQPGASLEQTHIFVLAHILRRPIIVYGVKYYKSFRGETLGYTRFQGVYLPLLWEQSFCWKSPIALGYTRGHFSALVAMENDGYGNRGAGANLNTDDDVTITFLPLVDSERKLLHVHFLSAQELGNEEQQEKLLREWLDCCVTEGGVLVAMQKSSRRRNHPLVTQMVEKWLDRYRQIRPCTSLSDGEEDEDDEDE
notes: not shown: Flag tag

B4: HA-UBE3C (protein)
chain: MFSFEGDFKTRPKVSLGGASRKEEKASLLHRTQEERRKREEERRRLKNAIIIQSFIRGYRDRKQQYSIQRSAFDRCATLSQSGGAFPIANGPNLTLLVRQLLFFYKQNEDSKRLIWLYQNLIKHSSLFVKQLDGSERLTCLFQIKRLMSLCCRLLQNCNDDSLNVALPMRMLEVFSSENTYLPVLQDASYVVSVIEQILHYMIHNGYYRSLYLLINSKLPSSIEYSDLSRVPIAKILLENVLKPLHFTYNSCPEGARQQVFTAFTEEFLAAPFTDQIFHFIIPALADAQTVFPYEPFLNALLLIESRCSRKSGGAPWLFYFVLTVGENYLGALSEEGLLVYLRVLQTFLSQLPVSPASASCHDSASDSEEESEEADKPSSPEDGRLSVSYITEECLKKLDTKQQTNTLLNLVWRDSASEEVFTTMASVCHTLMVQHRMMVPKVRLLYSLAFNARFLRHLWFLISSMSTRMITGSMVPLLQVISRGSPMSFEDSSRIIPLFYLFSSLFSHSLISIHDNEFFGDPIEVVGQRQSSMMPFTLEELIMLSRCLRDACLGIIKLAYPETKPEVREEYITAFQSIGVTTSSEMQQCIQMEQKRWIQLFKVITNLVKMLKSRDTRRNFCPPNHWLSEQEDIKADKVTQLYVPASRHVWRFRRMGRIGPLQSTLDVGLESPPLSVSEERQLAVLTELPFVVPFEERVKIFQRLIYADKQEVQGDGPFLDGINVTIRRNYIYEDAYDKLSPENEPDLKKRIRVHLLNAHGLDEAGIDGGGIFREFLNELLKSGFNPNQGFFKTTNEGLLYPNPAAQMLVGDSFARHYYFLGRMLGKALYENMLVELPFAGFFLSKLLGTSADVDIHHLASLDPEVYKNLLFLKSYEDDVEELGLNFTVVNNDLGEAQVVELKFGGKDIPVTSANRIAYIHLVADYRLNRQIRQHCLAFRQGLANVVSLEWLRMFDQQEIQVLISGAQVPISLEDLKSFTNYSGGYSADHPVIKVFWRVVEGFTDEEKRKLLKFVTSCSRPPLLGFKELYPAFCIHNGGSDLERLPTASTCMNLLKLPEFYDETLLRSKLLYAIECAAGFELS
in vitro ubiquitination assay, Western blot of polyubiquitin chain on VPS34 (FIG. 3I) (Flag-VPS34, Q8NEB9): baculovirally purified UBE3C could assemble polyubiquitin chain on VPS34 purified from 293T cells
